Test results from patent US5578310A, “Topical bioadhesive ointment compositions and their use in wound healing” (Berlex Laboratories Inc., priority 1994, dated 1996).

Experiment: In vivo uptake and tissue distribution of 125I-TGFα from TJ-TGFα formulation on wounded cheek pouch
Design: species or system Golden Syrian hamsters
Settings: for Distribution of 125I-TGFα in the Tissues: Skin: 25 cm^2 skin on back; for Distribution of 125I-TGFα in the Tissues: Blood / Distribution of 125I-TGFα in the Tissues: Cecum / Distribution of 125I-TGFα in the Tissues: Colon / Distribution of 125I-TGFα in the Tissues: Esophagus / Distribution of 125I-TGFα in the Tissues: Kidney / Distribution of 125I-TGFα in the Tissues: Liver / Distribution of 125I-TGFα in the Tissues: Small Intestine / Distribution of 125I-TGFα in the Tissues: Stomach / Distribution of 125I-TGFα in the Tissues: Submaxillary Gland / Distribution of 125I-TGFα in the Tissues: Thyroid / Distribution of 125I-TGFα in the Tissues: Tongue: cheek pouch wound; for Distribution of 125I-TGFα in the Tissues: Cheek Pouch: right-hand side cheek pouch (application site)
Excerpt: The TGFα-containing ointment composition of Example 2 (TJ-TGFα formulation) was subjected, both in vitro and in vivo, to evaluation to meet the therapeutical requirements for oral mucositis. The in vitro evaluation included TGFα release and extraction from the composition, autoclave sterilizability and the bioactivity and stability of TGFα in the composition. The in vivo evaluation included TGFα uptake and tissue distribution of absorbed TGFα from hamster's cheek pouch.
B. The in vivo uptake of TGFα from the TJ-TGFα formulation was determined in Golden Syrian hamsters, female, approximately 150 g using an ^125 I-TGFα formulation (specific activity-45 μci/μg), the hamster's cheek pouch having a mechanically created wound. A pharmacokinetic study of tissue distribution of TGFα absorbed by the hamsters was also conducted. The methods employed were as follows:
1. Fast hamsters overnight.
2. Anesthetize hamsters by I.M. injection of ketamine HCl.
3. Create a 2 mm diameter wound on the right-hand side of hamster's cheek pouch by a biopsy punch.
4. Following the removal of the debridement and blood clot, administer 20 μl TJ-TGFα formulation containing 26 μci 125I-TGFα onto the wound area by a Gilson Microman.
5. Keep the hamsters in their cages and give no water or food during the course of 6 hours study.
6. Select three hamsters at time 15 minutes, 30 minutes, 1 hour, 2 hours, 4 hours and 6 hours and select one hamster at 24 hours for TGFα uptake and tissue distribution study.
7. Punch a needle into the hamster's heart and withdrawn 1 ml blood by a 5 ml syringe.
8. Sacrifice hamster by inhalation of an overdose of carbon dioxide vapor from dry ice in a closed chamber.
9. Immediately after sacrificing, remove the liver, kidney, thyroid, submaxillary gland, esophagus, stomach, small intestine, cecum, colon, 25 cm^2 skin on back, tongue and right-hand side of cheek pouch.
11. Count the CPM of ^125 I-TGFα that distributed in the hamster's tissue and GI contents.

Q: For “^125 I-TGFα: 125I-labelled TGFα (specific activity 45 μci/μg) administered in TJ-TGFα formulation onto the hamster cheek pouch wound”, which “Distribution of 125I-TGFα in the Tissues: Skin” value (from here on “Distribution of 125I-TGFα … Skin”) (15 min.) is on record?
A: The value was 0.04%.

Q: And the “Distribution of 125I-TGFα in the Tissues: Blood” value (shortened to “Distribution … Blood”) (15 min.)?
A: Its value is 0.01%.

Q: What about the “Distribution of 125I-TGFα in the Tissues: Cecum” value (“Distribution … Cecum” below) (15 min.) of the same substance?
A: The value was 0.303%.

Q: What about the “Distribution of 125I-TGFα in the Tissues: Colon” value (from here on “Distribution … Colon”) (15 min.) of the same substance?
A: Its value is 0.01%.

Q: And the “Distribution of 125I-TGFα in the Tissues: Esophagus” value (shortened to “Distribution … Esophagus”) (15 min.)?
A: Its value is 0.001%.

Q: What about the “Distribution of 125I-TGFα in the Tissues: Kidney” value (“Distribution … Kidney” below) (15 min.) of the same substance?
A: Its value is 0.02%.

Q: And the “Distribution of 125I-TGFα in the Tissues: Liver” value (shortened to “Distribution … Liver”) (15 min.)?
A: The value was 0.03%.

Q: What about the “Distribution of 125I-TGFα in the Tissues: Small Intestine” value (“Distribution … Small Intestine” below) (15 min.) of the same substance?
A: Its value is 0.01%.

Q: And the “Distribution of 125I-TGFα in the Tissues: Stomach” value (“Distribution … Stomach” below) (15 min.)?
A: The value was 0.01%.

Q: What about the “Distribution of 125I-TGFα in the Tissues: Submaxillary Gland” value (“Distribution … Submaxillary Gland” below) (15 min.) of the same substance?
A: Its value is 0.02%.

Q: What about the “Distribution of 125I-TGFα in the Tissues: Thyroid” value (shortened to “Distribution … Thyroid”) (15 min.) of the same substance?
A: The value was 0.005%.

Q: What about the “Distribution of 125I-TGFα in the Tissues: Tongue” value (from here on “Distribution … Tongue”) (15 min.) of the same substance?
A: The value was 0.85%.

Q: What about the “Distribution of 125I-TGFα in the Tissues: Cheek Pouch” value (“Distribution … Cheek Pouch” below) (15 min.) of the same substance?
A: The value was 76%.

Q: What about the “Distribution of 125I-TGFα … Skin” value (0.5 hrs.) of the same substance?
A: Its value is 0.06%.

Q: And the “Distribution … Blood” value (0.5 hrs.)?
A: The value was 0.02%.

Q: And the “Distribution … Cecum” value (0.5 hrs.)?
A: Its value is 0.01%.

Q: And the “Distribution … Colon” value (0.5 hrs.)?
A: Its value is 0.02%.

Q: What about the “Distribution … Esophagus” value (0.5 hrs.) of the same substance?
A: Its value is 0.01%.

Q: And the “Distribution … Kidney” value (0.5 hrs.)?
A: The value was 0.07%.

Q: What about the “Distribution … Liver” value (0.5 hrs.) of the same substance?
A: Its value is 0.07%.

Q: And the “Distribution … Small Intestine” value (0.5 hrs.)?
A: The value was 0.05%.

Q: And the “Distribution … Stomach” value (0.5 hrs.)?
A: The value was 0.03%.

Q: And the “Distribution … Submaxillary Gland” value (0.5 hrs.)?
A: The value was 0.05%.

Q: And the “Distribution … Thyroid” value (0.5 hrs.)?
A: Its value is 0.02%.

Q: And the “Distribution … Tongue” value (0.5 hrs.)?
A: The value was 3.13%.

Q: And the “Distribution … Cheek Pouch” value (0.5 hrs.)?
A: The value was 30%.

Q: And the “Distribution of 125I-TGFα … Skin” value (1 hr.)?
A: Its value is 0.03%.

Q: And the “Distribution … Blood” value (1 hr.)?
A: Its value is 0.04%.

Q: And the “Distribution … Cecum” value (1 hr.)?
A: The value was 0.02%.

Q: What about the “Distribution … Colon” value (1 hr.) of the same substance?
A: Its value is 0.04%.

Q: What about the “Distribution … Esophagus” value (1 hr.) of the same substance?
A: Its value is 0.01%.

Q: And the “Distribution … Kidney” value (1 hr.)?
A: The value was 0.07%.

Q: And the “Distribution … Liver” value (1 hr.)?
A: The value was 0.09%.

Q: What about the “Distribution … Small Intestine” value (1 hr.) of the same substance?
A: The value was 0.04%.

Q: What about the “Distribution … Stomach” value (1 hr.) of the same substance?
A: The value was 0.05%.

Q: What about the “Distribution … Submaxillary Gland” value (1 hr.) of the same substance?
A: Its value is 0.04%.

Q: And the “Distribution … Thyroid” value (1 hr.)?
A: The value was 0.02%.

Q: And the “Distribution … Tongue” value (1 hr.)?
A: The value was 4.82%.

Q: And the “Distribution … Cheek Pouch” value (1 hr.)?
A: Its value is 70%.

Q: And the “Distribution of 125I-TGFα … Skin” value (2 hrs.)?
A: Its value is 0.10%.

Q: And the “Distribution … Blood” value (2 hrs.)?
A: The value was 0.05%.

Q: What about the “Distribution … Cecum” value (2 hrs.) of the same substance?
A: The value was 0.06%.

Q: And the “Distribution … Colon” value (2 hrs.)?
A: The value was 0.06%.

Q: What about the “Distribution … Esophagus” value (2 hrs.) of the same substance?
A: The value was 0.01%.

Q: What about the “Distribution … Kidney” value (2 hrs.) of the same substance?
A: Its value is 0.14%.

Q: What about the “Distribution … Liver” value (2 hrs.) of the same substance?
A: Its value is 0.17%.

Q: What about the “Distribution … Small Intestine” value (2 hrs.) of the same substance?
A: The value was 0.07%.

Q: What about the “Distribution … Stomach” value (2 hrs.) of the same substance?
A: Its value is 0.10%.

Q: And the “Distribution … Submaxillary Gland” value (2 hrs.)?
A: The value was 0.20%.

Q: What about the “Distribution … Thyroid” value (2 hrs.) of the same substance?
A: The value was 0.14%.

Q: And the “Distribution … Tongue” value (2 hrs.)?
A: The value was 3.57%.

Q: What about the “Distribution … Cheek Pouch” value (2 hrs.) of the same substance?
A: Its value is 74%.

Q: What about the “Distribution of 125I-TGFα … Skin” value (4 hrs.) of the same substance?
A: The value was 0.14%.

Q: And the “Distribution … Blood” value (4 hrs.)?
A: Its value is 0.13%.

Q: What about the “Distribution … Cecum” value (4 hrs.) of the same substance?
A: The value was 0.04%.

Q: And the “Distribution … Colon” value (4 hrs.)?
A: Its value is 0.13%.

Q: And the “Distribution … Esophagus” value (4 hrs.)?
A: The value was 0.26%.

Q: What about the “Distribution … Kidney” value (4 hrs.) of the same substance?
A: The value was 0.23%.

Q: And the “Distribution … Liver” value (4 hrs.)?
A: Its value is 0.26%.
